The record followed here is article PMC3727927 (Molecular Biology of the Cell, 2013).

The data set deals with the molecule itself. Nature of the data set: light scattering.

B1: Bacillus subtilis MreB A277Q K305D double mutant, Strep-tagged (natural protein)
chain: MFGIGARDLGIDLGTANTLVFVKGKGIVVREPSVVALQTDTKSIVAVGNDAKNMIGRTPGNVVALRPMKDGVIADYETTATMMKYYINQAIKNKGMFARKPYVMVCVPSGITAVEERAVIDATRQAGARDAYPIEEPFAAAIGANLPVWEPTGSMVVDIGGGTTEVAIISLGGIVTSQSIRVAGDEMDDAIINYIRKTYNLMIGDRTAEAIKMEIGSAEAPEESDNMEIRGRDLLTGLPKTIEITGKEISNALRDTVSTIVEAVKSTLEKTPPELAQDIMDRGIVLTGGGALLRNLDKVISEETDMPVLIAEDPLDCVAIGTGKALEHIHLFKGKTR
Turning to B1, the binding result is on record as “binds”.
